Measured values from US6620616B1, “Nucleic acids encoding nitric oxide synthase variants” (The Cleveland Clinic Foundation, priority 2000, dated 2003).

How the values were obtained:
[1] = NADPH oxidation; format: biochemical; details: 25° C.
Method: (§1) The initial rate of NO synthesis, NADPH oxidation, or cytochrome c reduction by wild type and mutants was quantitated at 25° C. as described in Abu-Soud et al. (1997) J. Biol. Chem 272: 10769-10772. H2O2-dependent nNOS oxidation of NOHA to nitrite was assayed in 96-well microplates at 30° C. The assay volume was 100 μl and contained 40 mM EPPS, pH 7.6, 250 nM nNOS or mutants, 1 mM NOHA, 1 mM DTT, 25 units/ml superoxide dismutase 0.5 mM EDTA, and 4 μM H4B. Reactions were initiated by adding 30 mM H2O2 and stopped after 10 min by adding 1300 units of catalase. Nitrite was detected at 550 nm using the Griess reagent (100 μL) and quantitated based on nitrite standards.

[2] = NO synthesis from Arg (initial rate); format: biochemical; details: for NO synthesis from Arg, turn over number (kcat): 25° C.
Method: as §1

[3] = NO synthesis versus O2 concentration (oxyhemoglobin assay); format: biochemical; details: O2 levels ranging from 0 to 230 mm O2, 25° C., FIG. 3
Method: The reaction was started by adding 0.2 mM NADPH. Rates of synthesis were quantified as follows: the initial rate of NO synthesis by nNOS was quantitated at 25° C. using oxyhemoglobin assay for NO, according to the method found in Abu-Soud and Stuehr (1993) Proc. Natl. Acad. Sci. U.S.A. 90:10769-10772. The NO mediated conversion of oxyhemoglobin to met-hemoglobin was monitored over time as an absorbence increase at 401 nm, and quantitated using the extinction coefficient of 38 mM^−1 cm^−1. Quantitation was done with a Hitachi U2000 spectrophotometer. O2 concentration measurement in each reaction was calculated based on the O2 concentration of a saturated buffer at 25° C. (approximately 0.26 mM) and the mixing ratios of this solution with an anaerobic buffer that contained no oxygen. […] The difference in the enzymatic activity of the NOS variant and wild-type NOS is most pronounced at low concentrations of O2, i.e., concentrations ranging from 0 to 50 μM.

[4] = NO synthesis from NOHA (initial rate); format: biochemical; details: 25° C.
Method: as §1

[5] = Ferrous-nitrosyl complex formation during aerobic steady state; format: biochemical; details: air-saturated buffer, 15° C., 1 mM Arg, 20 μM H4B
Method: NO down-regulates the rate of NO synthesis and associated electron flux by binding to the nNOS heme. We therefore investigated if NO binding to the heme was altered by the Trp-409 mutations during aerobic steady-state catalysis. In this study, 0.6 μM nNOS was diluted is an air-saturated 40 mM EPPS buffer, pH 7.6, containing 0.9 mM EDTA, 3 μM CaM, 200 μM DTT, 20 μM H4B, 80 μM NADPH, and 1 mM Arg; final volume 1 ml. Reactions were started by adding 1.2 mM Ca^2+ and monitored by wavelength scanning at 15° C.

[6] = tested on: cytochrome c; assay: Cytochrome c reduction; format: biochemical; details: 25° C.
Method: as §1

[7] = Ferric- and ferrous-NO complex formation under anaerobic conditions; format: binding; details: Arg and H4B present
Method: Given the above, we investigated if either mutant could form stable ferric or ferrous NO complexes with authentic NO under an anaerobic atmosphere in the presence of Arg and H4B, as occurs for wild-type nNOS. Concentrated small amounts of nNOS or mutants were placed into an anaerobic cuvette with 4 μM H4B, 1 mM Arg, and 200 μM DTT and made anaerobic by repeated cycles of evacuation and equilibration with deoxygenated argon gas. A 40 mM EPPS buffer containing 4 μM H4B, 1 mM Arg, and 200 μM DTT was separately made anaerobic, and 1 ml of this solution was transferred to the cuvette. NO gas was added to the head space and dissolved by mixing. Dithionite solution was then added in some cases.

[8] = CaM-bound, +H4B, NAME (nitro-L-arginine methyl ester)

Substance | NADPH oxidation, turn over number (kcat) ([1]; +CaM) | NADPH oxidation, turn over number (kcat) ([1]; CaM-bound, +H4B, Arg) | NADPH oxidation, turn over number (kcat) [1, 8] | NADPH oxidation, turn over number (kcat) ([1]; CaM-bound, +H4B, agmatine) | NADPH oxidation, turn over number (kcat) ([1]; CaM-bound, +H4B, −Arg) | NADPH oxidation, turn over number (kcat) ([1]; CaM-bound, −H4B, −Arg) | NADPH oxidation, turn over number (kcat) ([1]; −CaM) | faster rate of NO synthesis from Arg compared with the wild type ([2]; +CaM) [fold] | NO synthesis from Arg, turn over number (kcat) ([2]; +CaM) | NO synthesis from Arg, turn over number (kcat) ([2]; −CaM) | rate of NO production relative to wild-type nNOS [3] | NO synthesis from NOHA, turn over number (kcat) ([4]; +CaM) | NO synthesis from NOHA, turn over number (kcat) ([4]; −CaM) | 6-coordinate ferrous-NO complex accumulation (absorbance buildup at 436 nm) during steady-state NO synthesis [5] | Cytochrome c reduction, turn over number (kcat) ([6]; +CaM) | Cytochrome c reduction, turn over number (kcat) ([6]; −CaM) | ferric NO complex formation with authentic NO [7] | ferrous-NO complex after dithionite reduction ([7]; dithionite added)
W409Y: rat nNOS variant with tyrosine (Y) at position 409 in place of tryptophan, His6-tagged, expressed in E. coli | 237 mol of product formed/mol of protein/min | 250 + 20 min^−1 | 25 + 4 min^−1 | 170 + 10 min^−1 | 124 + 4 min^−1 | 74 + 8 min^−1 | 11.2 mol of product formed/mol of protein/min | 1.8 | 155 mol of product formed/mol of protein/min | 0 mol of product formed/mol of protein/min | faster than the wild-type nNOS protein | 180 mol of product formed/mol of protein/min | 0 mol of product formed/mol of protein/min | no | 5546 mol of product formed/mol of protein/min | 280 mol of product formed/mol of protein/min |  | 
nNOS: wild-type rat neuronal nitric oxide synthase, His6-tagged, expressed in E. coli; non-variant comparator [reference compound] | 170 mol of product formed/mol of protein/min | 160 + 12 min^−1 | 22 + 4 min^−1 | 250 + 20 min^−1 | 500 + 25 min^−1 | 290 + 25 min^−1 | 11.2 mol of product formed/mol of protein/min |  | 96 mol of product formed/mol of protein/min | 0 mol of product formed/mol of protein/min |  | 115 mol of product formed/mol of protein/min | 0 mol of product formed/mol of protein/min | a significant percentage accumulated as the 6-coordinate ferrous-NO complex | 7000 mol of product formed/mol of protein/min | 500 mol of product formed/mol of protein/min | formed stable 6-coordinate ferric NO complexes | stable 6-coordinate ferrous-NO complex
W409F: rat nNOS variant with phenylalanine (F) at position 409 in place of tryptophan, His6-tagged, expressed in E. coli | 445 mol of product formed/mol of protein/min | 480 + 20 min^−1 | 16 + 3 min^−1 | 180 + 10 min^−1 | 189 + 15 min^−1 | 105 + 10 min^−1 | 5.6 mol of product formed/mol of protein/min | 3 | 286 mol of product formed/mol of protein/min | 0 mol of product formed/mol of protein/min | faster than the wild-type nNOS protein | 453 mol of product formed/mol of protein/min | 0 mol of product formed/mol of protein/min | small | 5000 mol of product formed/mol of protein/min | 230 mol of product formed/mol of protein/min |  | 
